Measured values: publication PMC10397247

What was measured:
P7bHq = target: T1, P7bHq; test: two-hybrid library CCNG1;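 note: natural log of median RNA to DNA barcode read ratio; higher means stronger binding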
T1 chain: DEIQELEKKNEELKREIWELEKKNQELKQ

P6bHq = target: T2, P6bHq; test: two-hybrid library CCNG1;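 note: natural log of median RNA to DNA barcode read ratio; higher means stronger binding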
T2 chain: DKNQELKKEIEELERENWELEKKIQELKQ

P3bHq = target: T3, P3bHq; test: two-hybrid library CCNG1;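 note: natural log of median RNA to DNA barcode read ratio; higher means stronger binding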
T3 chain: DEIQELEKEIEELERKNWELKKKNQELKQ

P2bHq = target: T4, P2bHq; test: two-hybrid library CCNG1;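 note: natural log of median RNA to DNA barcode read ratio; higher means stronger binding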
T4 chain: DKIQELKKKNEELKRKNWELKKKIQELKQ

P11bHq = target: T5, P11bHq; test: two-hybrid library CCNG1;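 note: natural log of median RNA to DNA barcode read ratio; higher means stronger binding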
T5 chain: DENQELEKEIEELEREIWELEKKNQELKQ

P4bHq = target: T6, P4bHq; test: two-hybrid library CCNG1;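 note: natural log of median RNA to DNA barcode read ratio; higher means stronger binding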
T6 chain: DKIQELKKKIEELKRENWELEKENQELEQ

P12bHq = target: T7, P12bHq; test: two-hybrid library CCNG1
T7 chain: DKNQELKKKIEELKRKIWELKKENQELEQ

P1bHq = target: T8, P1bHq; test: two-hybrid library CCNG1
T8 chain: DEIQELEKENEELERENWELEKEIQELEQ

P8bHq = target: T9, P8bHq; test: two-hybrid library CCNG1
T9 chain: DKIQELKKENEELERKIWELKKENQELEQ

P5bHq = target: T10, P5bHq; test: two-hybrid library CCNG1
T10 chain: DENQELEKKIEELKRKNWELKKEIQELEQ

P9bHq = target: T11, P9bHq; test: two-hybrid library CCNG1
T11 chain: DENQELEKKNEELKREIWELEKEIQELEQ

P4A-bH = target: T12, P4A-bH; test: two-hybrid library CCNG1
T12 chain: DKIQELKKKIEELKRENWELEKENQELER

P5A-bH = target: T13, P5A-bH; test: two-hybrid library CCNG1
T13 chain: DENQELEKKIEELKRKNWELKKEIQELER

P6A-bH = target: T14, P6A-bH; test: two-hybrid library CCNG1
T14 chain: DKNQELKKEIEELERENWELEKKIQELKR

P12A-bH = target: T15, P12A-bH; test: two-hybrid library CCNG1
T15 chain: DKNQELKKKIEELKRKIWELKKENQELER

P9A-bH = target: T16, P9A-bH; test: two-hybrid library CCNG1
T16 chain: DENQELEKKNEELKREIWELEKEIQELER

P2A-bH = target: T17, P2A-bH; test: two-hybrid library CCNG1
T17 chain: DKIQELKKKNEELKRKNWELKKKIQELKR

P8A-bH = target: T18, P8A-bH; test: two-hybrid library CCNG1
T18 chain: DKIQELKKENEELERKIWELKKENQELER

P3A-bH = target: T19, P3A-bH; test: two-hybrid library CCNG1
T19 chain: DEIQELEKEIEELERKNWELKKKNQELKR

P1A-bH = target: T20, P1A-bH; test: two-hybrid library CCNG1
T20 chain: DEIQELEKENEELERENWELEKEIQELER

P11A-bH = target: T21, P11A-bH; test: two-hybrid library CCNG1
T21 chain: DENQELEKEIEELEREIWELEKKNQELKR

P7A-bH = target: T22, P7A-bH; test: two-hybrid library CCNG1
T22 chain: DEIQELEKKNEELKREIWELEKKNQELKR

4H342-bH = target: T23, 4H342-bH; test: two-hybrid library CCNG1
T23 chain: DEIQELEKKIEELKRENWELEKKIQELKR

4H3070-bH = target: T24, 4H3070-bH; test: two-hybrid library CCNG1; conditions: mean of both orientations
T24 chain: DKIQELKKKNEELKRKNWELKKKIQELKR

4H2619-bH = target: T25, 4H2619-bH; test: two-hybrid library CCNG1
T25 chain: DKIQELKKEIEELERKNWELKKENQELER

4H3632-bH = target: T26, 4H3632-bH; test: two-hybrid library CCNG1
T26 chain: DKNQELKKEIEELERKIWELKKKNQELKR

4H145-bH = target: T27, 4H145-bH; test: two-hybrid library CCNG1; conditions: mean of both orientations
T27 chain: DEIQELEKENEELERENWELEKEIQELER

4H2691-bH = target: T28, 4H2691-bH; test: two-hybrid library CCNG1
T28 chain: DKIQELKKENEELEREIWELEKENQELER

4H496-bH = target: T29, 4H496-bH; test: two-hybrid library CCNG1
T29 chain: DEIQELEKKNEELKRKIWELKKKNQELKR

P6SC1 [1] = target: T30, P6SC1; test: two-hybrid library CCNG1
T30 chain: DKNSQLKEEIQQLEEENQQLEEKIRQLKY

P6SC2 [2] = target: T31, P6SC2; test: two-hybrid library CCNG1
T31 chain: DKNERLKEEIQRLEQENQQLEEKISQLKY

P6SC1 [3] = target: T30, P6SC1; test: two-hybrid library CCmax; conditions: mean of both orientations
P6SC2 [4] = target: T31, P6SC2; test: two-hybrid library CCmax; conditions: mean of both orientations

DENQELEKEIEELEREIWELEKKNQELKQ [P11bHq]
interaction score (P7bHq): -1.22
interaction score (P6bHq): 0.74
interaction score (P3bHq): 1.18
interaction score (P2bHq): 0.67
interaction score (P11bHq): 1.25
interaction score (P4bHq): 1.65
interaction score (P12bHq): 1.78
interaction score (P1bHq): 0.41
interaction score (P8bHq): 0.862
interaction score (P5bHq): 0.352
interaction score (P9bHq): 0.854

DENQELEKEIEELEREIWELEKKNQELKR [P11A-bH]
interaction score (P4A-bH): 1.83
interaction score (P5A-bH): 0.555
interaction score (P6A-bH): 0.692
interaction score (P12A-bH): 1.5
interaction score (P9A-bH): 1.09
interaction score (P2A-bH): 0.45
interaction score (P8A-bH): 0.165
interaction score (P3A-bH): 0.615
interaction score (P1A-bH): 1.5
interaction score (P11A-bH): -2.55
interaction score (P7A-bH): 0.921

DEIQELEKENEELERENWELEKEIQELER [4H145-bH]
interaction score (4H342-bH): -0.409
interaction score (4H3070-bH): 1.19
interaction score (4H2619-bH): -0.128
interaction score (4H3632-bH): -1.44
interaction score (4H145-bH): -0.793
interaction score (4H2691-bH): -0.291
interaction score (4H496-bH): -0.316

DENSQLEEKISQLKQKNSRLKEEIARLEY [P5SC1]
interaction score (P6SC1 [1]): 0.785
interaction score (P6SC2 [2]): -0.371
interaction score (P6SC1 [3]): 1.63
interaction score (P6SC2 [4]): 0.454
